Experimental data published in patent publication US11453711B2, “Fusion proteins of GLP-1 and GDF15 and conjugates thereof” (BEIJING QL BIOPHARMACEUTICAL CO., LTD., priority 2019, dated 2022).

B1: MLC008: fusion polypeptide SEQ ID NO: 255 conjugated with Moiety A at 6K of Linker (conjugate)
chain: HGEGTFTSDVSSYLEEQAAREFIAWLVRGGGGQEPGKEPGQEPGQEPGQEPGQEPGQEPGQEPGAQPGAQPARQGDHCPLGPGRCCRLHTVRASLEDLGWADWVLSPREVQVTMCIGACPSQFRAANLHAQIKTSLHRLRPDTVPAPCCVPASYNPMVLIQRTDTGVSLQTYDDLLARDCHCI
modifications: Moiety A conjugated at linker K6
B2: MLC004: fusion polypeptide SEQ ID NO: 251 conjugated with Moiety A at 26K of GLP-1 (conjugate)
chain: HGEGTFTSDVSSYLEEQAAKEFIAWLVRGGGGQEPGAQPGQEPGAQPGQEPGAQPGQEPGAQPGQEPGAQPGQEPGAQPGAQPGAQPGAQPGAQPGAQPGAQPGAQPGAQPARQGDHCPLGPGRCCRLHTVRASLEDLGWADWVLSPREVQVTMCIGACPSQFRAANLHAQIKTSLHRLRPDTVPAPCCVPASYNPMVLIQRTDTGVSLQTYDDLLARDCHCI
modifications: Moiety A conjugated at K26
B3: MLC089: fusion polypeptide SEQ ID NO: 379 conjugated with Moiety B at 39C of Linker (conjugate)
chain: HGEGTFTSDVSSYLEEQAAKEFIAWLVRGGGGAQPGAQPGAQPGAQPGAQPGAQPGAQPGAQPGQEPGQCPGQEPGAQPGQEPGAQPGQEPGAQPGQEPGAQPGQEPGAQPARQGDHCPLGPGRCCRLHTVRASLEDLGWADWVLSPREVQVTMCIGACPSQFRAANLHAQIKTSLHRLKPDTVPAPCCVPASYNPMVLIQKTDTGVSLQTYDDLLAKDCHCI
modifications: Moiety B conjugated at linker Cys39

How the values were obtained:
[1] = Body weight and food intake in C57BL/6 mice, fusion protein conjugates, 30 nmol/kg daily 10 days; format: in vivo
How it was run: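 Male C57BL/6 mice received fusion protein conjugates by daily subcutaneous injection, with dosing running from Day 1 to Day 10. Body weight was recorded daily per animal and food intake daily per group. Body weight reduction was expressed relative to vehicle percent loss from Day 1. Cumulative food intake reduction was expressed as percent decrease versus vehicle.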

[2] = Body weight and food intake in lean C57BL/6 mice, lysine conjugated compounds, 15 nmol/kg daily sc 14 days; format: in vivo; details: for Body weight reduction at 15 nmol/kg (% reduction compared to vehicle)(Day11) / Cumulative food intake reduction at 15 nmol/kg (% reduction compared to vehicle)(Day11): C57 mice, 15 nmol/kg daily sc
Experimental: FIGS. 1A-1F show In vivo activities of fusion proteins. To evaluate the body weight and food intake effects of the fusion proteins, 10 week old male C57BL/6J mice were dosed everyday subcutaneously with 15 nmol/kg protein for 14 days. Food intake and body weight were measured daily. FIGS. 1A and 1B show body weight loss upon protein treatments from Day1 to Day15. […] FIGS. 1D and 1E show cumulative food intake with protein treatments from Day1 to Day15. […] Vehicle: 1.42 mg/mL disodium phosphate dihydrate, 14 mg/mL propylene glycol pH7.4. Data are expressed as mean values and standard error (SEM) for FIGS. 1A, 1B and 1C. n=5 for each treatment group. For FIGS. 1D, 1E and 1F, a pooled food intake was measured for each treatment group.
10 week old male C57BL/6 mice were injected everyday subcutaneously with 15 nmol/kg of the fusion protein conjugates (i.e., MLC002, MLC 004, MLC 005, MLC 006, MLC 007, MLC 008, and MLC 009) for 14 days. Food intake and body weight were measured daily and five animals were used for each treatment group. Body weight (BW) was monitored for each individual animal, but food intake for each group animals was measured together. Day 1 and Day 14 are first day and last day of molecule dosage. % BW loss=100*(BW on Day n-BW on Day 1)/(BW on Day 1). Cumulative food intake on Day n represents sum of food intake from Day 1 to Day n. Data are indicated as mean values and standard error (SEM) or pooled values. Statistical analysis was performed by One-way ANOVA. Body weight reduction on Day 11 is calculated by −1*(% BW loss−% BW loss of vehicle group); Cumulative food intake reduction is calculated by −100*(cumulative food intake-cumulative food intake of vehicle)/cumulative food intake of vehicle.

[3] = Pharmacokinetic measurement in mouse, single sc dose 30 nmol/kg, plasma ELISA; details: for Cmax: read-out: Cmax (nmol/L), single sc dose 30 nmol/kg; for AUC0-24 h / Terminal t1/2 / Tmax: single sc dose 30 nmol/kg
[4] = PK study in non-human primates, single sc dose 5 nmol/kg, plasma ELISA; details: monkey, single sc dose 5 nmol/kg; for Cmax: read-out: Cmax (nmol/L)
Experimental: Plasma samples were collected pre-dose (−5 min), 2 hr, 4 hr, 6 hr, 8 hr, 24 hr, 48 hr, 72 hr, 96 hr, 120 hr, 144 hr, 216 hr, 288 hr, 360 hr, 432 hr and 504 hr after the injection. The concentrations of the fusion protein conjugates in the plasma were measured by an ELISA assay which has immunoreactivity towards both GDF15 and intact N-terminal of GLP-1. Based on the graph showing plasma concentration of each protein versus time after subcutaneous injection, the pharmacokinetic parameters (including Tmax, Cmax, T1/2, AUC) were calculated by WinNonlin software.

[5] = Efficacy in db/db mice: body weight, food intake, glucose, biomarkers, daily sc 14 days; format: in vivo
Experimental: (§1) FIGS. 4A-4D show In vivo efficacy in db/db mice. To evaluate the body weight, food intake and glucose effects of the fusion proteins, 8 week old male db/db mice were dosed everyday subcutaneously with 30 nmol/kg protein for 14 days. […] Compared to Vehicle control: ***, p<0.001. Data are expressed as mean values and standard error (SEM) for FIGS. 4A, 4B and 4D. n=5 for each treatment group. For FIG. 4C, a pooled food intake was measured for each treatment group.
FIGS. 5A-5F show In vivo efficacy in db/db mice. To evaluate the body weight, food intake and glucose effects of the fusion proteins, 8 week old male db/db mice were dosed everyday subcutaneously with different concentrations of proteins for 14 days. FIGS. 5A and 5B show body weight loss upon protein treatments from Day1 to Day15. […] Compared to Vehicle control: ***, p<0.001; **, p<0.01; *, p<0.05; ns, non-statistically significant; FIGS. 5D and 5E show cumulative food intake with protein treatments from Day1 to Day15. […] Compared to Vehicle control: ***, p<0.001**, p<0.01; *, p<0.05; ns, non-statistically significant. Data are expressed as mean values and standard error (SEM) for FIGS. 5A, 5B, 5C and 5F. n=5 for each treatment group. For FIGS. 5D and 5E, a pooled food intake was measured for each treatment group.
as §1, with “8A-8I” for “4A-4D”, “different concentrations of proteins” for “30 nmol/kg protein”, “FIGS. 8D-8F show body weight loss upon dose titrations of fusion protein conjugates. […]” for “Compared to Vehicle control: ***, p<0.001.”, “8A” for “4A, 4B”, “8C-I.” for “4D.”, “8B,” for “4C,”
Selected fusion protein conjugates are assessed in disease animal models (DIO mice, db/db mice, etc.) to determine body weight, food intake, glucose efficacy with dose responses. Some biomarkers are also measured, including fasting insulin, plasma triglyceride, cholesterol, liver triglyceride, and inflammatory biomarkers (ALT, AST and CRP).
8 week old male db/db mice were injected everyday subcutaneously with designated proteins for 14 days. Age matched lean mice were used as control. Food intake and body weight were measured daily and five animals were used for each treatment group. Fasting glucose were tested on designated days as shown in each figure. Body weight was monitored for each individual animal, but food intake for each group animals was measured together. Day 1 and Day 14 are first day and last day of molecule dosage. % BW loss=100*(BW on Day n-BW on Day 1)/(BW on Day 1). Cumulative food intake on Day n represents sum of food intake from Day 1 to Day n. Terminal blood was collected and EDTA-2K plasma was prepared and frozen at −80° C. for biomarker measurement. Liver was also collected and frozen in liquid nitrogen and store at −80° C. Data are indicated as mean values and standard error (SEM) or pooled values. Statistical analysis was performed by One-way ANOVA.

[6] = Efficacy in DIO mice, daily sc 28 days; format: in vivo, DIO male C57BL/6 mice
Experimental: FIGS. 6A-6E show In vivo efficacy in DIO mice. To evaluate the body weight, food intake and glucose effects of the fusion proteins, 17 week old DIO mice (C57BL/6 mice on high fat diet for 13 weeks) were dosed everyday subcutaneously with different concentrations of proteins for 28 days. […] FIGS. 6D and 6E show body weight change with dose titrations of MLC089 and MLC093 at 3, 10 and 30 nmol/kg. Data are expressed as mean values and standard error (SEM) for FIGS. 6A, 6C, 6D and 6E. n=5 for each treatment group. For FIG. 6B, a pooled food intake was measured for each treatment group.
17 week old DIO male C57BL/6 mice (˜45 g) were injected everyday subcutaneously with designated proteins (i.e., MLC089, MLC093) for 28 days. Food intake and body weight were measured daily and five animals were used for each treatment group. Fasting glucose was also monitored on designated days. Body weight and glucose were monitored for each individual animal, but food intake for each group animals was measured together. Day 1 and Day 28 are first day and last day of molecule dosage. % BW loss=100*(BW on Day n-BW on Day 1)/(BW on Day 1). Cumulative food intake on Day n represents sum of food intake from Day 1 to Day n. Terminal blood was collected and EDTA-2K plasma was prepared and frozen at −80 C for biomarker measurement. Liver was also collected and frozen in liquid nitrogen and store at −80 C. Data are indicated as mean values and standard error (SEM) or pooled values.

[7] = 30 nmol/kg, FIG. 8A-C, versus Semaglutide, Tirzepatide and MLC014

Row | Molecule | Body weight reduction at 30 nmol/kg (% reduction compared to vehicle)(Day11) [1] | Cumulative food intake reduction at 30 nmol/kg (% reduction compared to vehicle)(Day11) [1] | Body weight reduction at 15 nmol/kg (% reduction compared to vehicle)(Day11) [2] | Cumulative food intake reduction at 15 nmol/kg (% reduction compared to vehicle)(Day11) [2] | Cmax [3] | AUC0-24 h [3] | Terminal t1/2 [3] | Tmax [3] | AUC0-96 h [4] | Terminal t1/2 [4] | Tmax [4] | Cmax [4] | also measured
1 | Semaglutide [reference compound] | 2.6% | 20.9% | 7.2% | 23.2% | – | – | – | – | – | – | – | – | –
2 | B1 | – | – | 10.9% | 19.5% | 20.8 nmol/L | 0.0822 µM·h | 4.2 h | 0.7 h | – | – | – | – | –
3 | B2 | 18.3% | 35.0% | 13.9% | 21.8% | 15.1 nmol/L | 0.1745 µM·h | 7.4 h | 3.3 h | 0.79 µM·h | 13 h | 8 h | 32.1 nmol/L | BW reduction ([2]; 15 nmol/kg daily sc 14 days, versus Semaglutide): statistically significantly enhanced BW loss efficacy than Semaglutide
4 | B3 | 24.6% | 29.9% | – | – | 116 nmol/L | 1.9822 µM·h | 14.7 h | 10.7 h | 3.413 µM·h | 54 h | 8 h | 70.5 nmol/L | body weight loss [5, 7]: more body weight loss, food intake suppression and glycemic control; food intake suppression [5, 7]: more body weight loss, food intake suppression and glycemic control; glycemic control [5, 7]: more body weight loss, food intake suppression and glycemic control; efficacy ([5]; FIG. 8 study): better efficacy than Semaglutide and GDF15 derivative (MLC014); body weight reduction efficacy ([6]; DIO mice, 30 nmol/kg daily 28 days, FIG. 6A): much better body weight reduction efficacy than Semaglutide and GDF15 derivative (MLC014); dose dependence of body weight reduction ([6]; DIO mice, 3, 10 and 30 nmol/kg, FIGS. 6D and 6E): dose dependent efficacy on body weight reduction; fasting glucose ([6]; DIO mice, FIG. 6C): reached similar level to Semaglutide; efficacy ([6]; DIO study, FIG. 6): better efficacy than Semaglutide and GDF15 derivative (MLC014)
